Results from patent US20230265183A1 (MABWELL SHANGHAI BIOSCIENCE, published 2023).

T1: human Nectin-4 (human, UniProt Q96NY8 32-510)
T1 construct: whole, on cells; Cell-surface target of the FACS, endocytosis and proliferation assays (CHO-huNectin4 S8 cells, BT474 cells); the assay field says which cells; also called huNectin4; PVRL4
T1 sequence (looked up): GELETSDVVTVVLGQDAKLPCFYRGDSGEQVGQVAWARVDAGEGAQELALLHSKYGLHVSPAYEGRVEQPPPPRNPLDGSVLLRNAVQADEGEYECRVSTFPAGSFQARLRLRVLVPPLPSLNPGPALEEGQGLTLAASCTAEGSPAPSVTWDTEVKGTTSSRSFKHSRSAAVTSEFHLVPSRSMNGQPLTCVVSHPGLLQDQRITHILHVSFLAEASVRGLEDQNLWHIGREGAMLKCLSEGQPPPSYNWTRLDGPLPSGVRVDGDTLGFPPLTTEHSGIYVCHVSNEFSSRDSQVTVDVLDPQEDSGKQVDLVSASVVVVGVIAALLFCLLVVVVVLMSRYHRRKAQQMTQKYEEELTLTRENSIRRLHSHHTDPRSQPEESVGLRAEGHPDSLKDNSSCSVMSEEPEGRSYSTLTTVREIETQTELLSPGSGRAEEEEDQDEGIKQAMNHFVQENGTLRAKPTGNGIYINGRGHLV

T2: murine Nectin4 (NP_082169) (murine, UniProt Q8R007 31-508)
T2 construct: whole, on cells; also called muNectin4
T2 sequence (looked up): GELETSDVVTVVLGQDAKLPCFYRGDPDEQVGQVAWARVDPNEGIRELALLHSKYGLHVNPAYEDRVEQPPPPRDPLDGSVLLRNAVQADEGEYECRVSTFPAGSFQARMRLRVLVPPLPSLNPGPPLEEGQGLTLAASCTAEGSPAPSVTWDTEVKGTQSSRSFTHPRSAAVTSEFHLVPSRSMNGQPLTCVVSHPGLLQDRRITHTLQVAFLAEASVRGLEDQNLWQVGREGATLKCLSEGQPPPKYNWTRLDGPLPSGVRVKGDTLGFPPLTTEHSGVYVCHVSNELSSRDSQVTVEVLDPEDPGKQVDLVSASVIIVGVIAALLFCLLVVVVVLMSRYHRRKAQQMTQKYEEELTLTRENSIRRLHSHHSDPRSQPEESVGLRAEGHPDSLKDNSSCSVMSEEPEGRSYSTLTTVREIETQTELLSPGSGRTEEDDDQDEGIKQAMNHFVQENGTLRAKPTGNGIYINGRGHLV

T3: Cyno Nectin4 (Cyno, UniProt Q96NY8 32-510 (human entry))
T3 construct: Expressed on HEK293 cells (HEK-cynoNectin4)
T3 chain: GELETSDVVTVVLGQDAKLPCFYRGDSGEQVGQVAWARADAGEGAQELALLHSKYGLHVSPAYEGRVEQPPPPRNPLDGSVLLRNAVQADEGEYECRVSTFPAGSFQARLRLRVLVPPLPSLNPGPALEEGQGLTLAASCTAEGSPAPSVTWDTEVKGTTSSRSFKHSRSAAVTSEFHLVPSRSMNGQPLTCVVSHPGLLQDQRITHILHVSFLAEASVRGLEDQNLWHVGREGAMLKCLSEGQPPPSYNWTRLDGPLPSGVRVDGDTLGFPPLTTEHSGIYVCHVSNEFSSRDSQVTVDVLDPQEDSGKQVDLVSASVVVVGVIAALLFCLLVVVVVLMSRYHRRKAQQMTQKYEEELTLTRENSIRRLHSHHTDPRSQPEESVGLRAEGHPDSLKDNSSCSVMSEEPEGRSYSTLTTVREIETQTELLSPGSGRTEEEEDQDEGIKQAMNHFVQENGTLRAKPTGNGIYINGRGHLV

T4: human Nectin-2(C-6His), Novoprotein Cat# C440 (human, UniProt Q92692 32-360, limits assumed)
T4 sequence: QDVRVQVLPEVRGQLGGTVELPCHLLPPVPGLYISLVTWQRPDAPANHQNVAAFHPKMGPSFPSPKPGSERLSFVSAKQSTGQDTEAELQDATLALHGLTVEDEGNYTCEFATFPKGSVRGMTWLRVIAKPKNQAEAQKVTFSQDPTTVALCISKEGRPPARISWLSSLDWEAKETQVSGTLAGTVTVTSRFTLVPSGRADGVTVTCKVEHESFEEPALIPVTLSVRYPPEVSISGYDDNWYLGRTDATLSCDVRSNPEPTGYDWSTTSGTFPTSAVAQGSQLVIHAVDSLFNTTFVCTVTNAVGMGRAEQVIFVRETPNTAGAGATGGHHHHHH


Key:
human Nectin-4 = target: T1, human Nectin-4; assay: FACS on BT474 cells
Description: The solutions of different concentrations were added to 384-well plates, 10 µl per well.
BT474 cells (breast cancer cells) expressing Nectin-4 on the cell surface were collected by centrifugation at 100 g at room temperature for 5 minutes, and then the cells were washed with PBS containing 0.5% BSA once and were centrifuged at 100 g at room temperature for 5 minutes. […] After incubation at 4° C. for 1 hour, fluorescently labeled goat anti-human IgG secondary antibody was added. After continued incubation at 4° C. for 1 hour, mean fluorescence readings of the cell populations were analyzed by a flow cytometer.
The experiment results of the binding of engineered humanized molecules of the present disclosure to BT474 cells by FACS assay are shown in panels 3B and 3C in FIG. 3 and Tables 6 and 7.

[1] = target: T2, murine Nectin4 (NP_082169); assay: FACS on HEK-muNectin4 cells
Cyno Nectin4 = target: T3, Cyno Nectin4; assay: FACS on HEK-cynoNectin4 cells
[2] = target: T4, human Nectin-2(C-6His), Novoprotein …; assay: ELISA, plate coated with 1 µg/ml human Nectin-2(C-6His), absorbance at 450 nm. The text names only a goat anti-rabbit HRP secondary antibody
Description: Plates were coated with 1 µg/ml of the antigens and incubated at 4° C. overnight; next, antibodies serially diluted were added into the plates. Finally, the HRP-labeled secondary antibody was added, and absorbance at 450 nm was detected.

Row | EC50 (human Nectin-4) | EC50 [1] | EC50 (Cyno Nectin4) | binding result [2] | Binder
1 | 0.0503 mg/L | 2.43 mg/L | 0.948 to 2.07 mg/L | no binding (tested: 10 µg/ml) | Enfortumab (antibody, human IgG1, kappa, V domains shown, also called control antibody Enfortumab) VH: EVQLVESGGGLVQPGGSLRLSCAASGFTFSSYNMNWVRQAPGKGLEWVSYISSSSSTIYYADSVKGRFTISRDNAKNSLSLQMNSLRDEDTAVYYCARAYYYGMDVWGQGTTVTVSS VL: DIQMTQSPSSVSASVGDRVTITCRASQGISGWLAWYQQKPGKAPKFLIYAASTLQSGVPSRFSGSGSGTDFTLTISSLQPEDFATYYCQQANSFPPTFGGGTKVEIKR
2 | 0.0528 mg/L | 8.74 mg/L | 2.42 to 4.97 mg/L | no binding (tested: 10 µg/ml) | 42D20 hz10 (antibody, V domains shown, Humanized) VH: QVQLQESGPGLVKPSETLSLTCTVSGFSLIDYGVSWIRQPPGKGLEWIGVIWGDGKIYYNSVLKSRVTISKDNSKSQVSLKLSSVTAADTAVYYCAKQGGLLFYAMDYWGQGTLVTVSS VL: DIVMTQSPDSLAVSLGERATINCKSSQSLLNSYSQKNYLAWYQQKPGQPPKLLIYFASTRESGVPDRFSGSGSGTDFTLTISSLQAEDVAVYYCQQHYNTPFTFGAGTKLELKR
